According to publication PMC5857972 (2018):
Blank lines part the entries; values can stand above or below the molecule they belong to.

What was measured:
[1] = molecular target: Pertuzumab Vκ1|VH3 whole IgG1 (original pairing); test: BLI; Octet QKe; antibody captured by its Fc on Anti-Human Fc Capture (AHC) biosensor, Her2 in solution; KD calculated from Kon and Koff by the Octet software; triplicates
[2] = molecular target: extracellular portion of the human FcγIIA (human) (UniProt P12318); test: BLI
[3] = molecular target: T1, extracellular portion of the human FcγIIA (human, UniProt P12318-1 34-215); test: BLI
T1 chain: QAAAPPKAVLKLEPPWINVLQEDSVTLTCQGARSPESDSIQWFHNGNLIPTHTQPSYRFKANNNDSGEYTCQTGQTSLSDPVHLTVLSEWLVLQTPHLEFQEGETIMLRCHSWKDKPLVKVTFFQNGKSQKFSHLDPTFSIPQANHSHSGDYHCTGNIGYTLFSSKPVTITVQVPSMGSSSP

[4] = molecular target: T1, extracellular portion of the human …; test: BLI

Molecule: Pertuzumab Vκ2|VH2 whole IgG1 variant (from UniProt P01857)
Kd [2]: 4.99 nM

Molecule: Pertuzumab Vκ2|VH6 whole IgG1 variant (from UniProt P01857)
Kd [2]: 3.94 nM

Molecule: Pertuzumab Vκ3|VH1 whole IgG1 variant (from UniProt P01857)
Kd [2]: 11.5 nM

Molecule: Pertuzumab Vκ6|VH5 whole IgG1 variant (from UniProt P01857)
Kd [2]: 83 nM

Molecule: Trastuzumab Vκ2|VH6 whole IgG1 variant (from UniProt P01857)
Kd [2]: 14.7 nM

Molecule: Trastuzumab Vκ6|VH5 whole IgG1 variant (from UniProt P01857)
Kd [2]: 12.5 nM

Molecule: Trastuzumab Vκ6|VH6 whole IgG1 variant (from UniProt P01857)
Kd [2]: 39.7 nM

B1: Pertuzumab Vκ1|VH3 whole IgG1 (original pairing) (antibody, V domains shown)
VH: EVQLVESGGGLVQPGGSLRLSCAASGFTFTDYTMDWVRQAPGKGLEWVADVNPNSGGSIYNQRFKGRFTLSVDRSKNTLYLQMNSLRAEDTAVYYCARNLGPSFYFDYWGQGTLVTVSS
VL: DIQMTQSPSSLSASVGDRVTITCKASQDVSIGVAWYQQKPGKAPKLLIYSASYRYTGVPSRFSGSGSGTDFTLTISSLQPEDFATYYCQQYYIYPYTFGQGTKVEIK
Kd [3]: 9.31 nM
koff [4]: 0.00154 s⁻¹

More lines, now with the values ahead:

Kd [1]: 0.87 nM
Molecule: Her2 (from UniProt P04626 23-1255) (natural protein)

Kd [2]: 4.74 nM
Molecule: Pertuzumab Vκ1|VH2 whole IgG1 variant (from UniProt P01857)

Kd [2]: 23.7 nM
Molecule: Pertuzumab Vκ3|VH3 whole IgG1 variant (from UniProt P01857)

Kd [2]: 116 nM
Molecule: Pertuzumab Vκ4|VH1 whole IgG1 variant (from UniProt P01857)

Kd [2]: 3.33 nM
Molecule: Pertuzumab Vκ4|VH2 whole IgG1 variant (from UniProt P01857)

Kd [2]: 15.7 nM
Molecule: Pertuzumab Vκ5|VH3 whole IgG1 variant (from UniProt P01857)

Kd [2]: 72.7 nM
Molecule: Pertuzumab Vκ6|VH7 whole IgG1 variant (from UniProt P01857)

Kd [2]: 9.3 nM
Molecule: Trastuzumab Vκ3|VH1 whole IgG1 variant (from UniProt P01857)

Kd [2]: 47.9 nM
Molecule: Trastuzumab Vκ6|VH1 whole IgG1 variant (from UniProt P01857)

Kd [2]: 30 nM
Molecule: Trastuzumab Vκ6|VH4 whole IgG1 variant (from UniProt P01857)
